Measurements from paper PMC7954794, “Protein context shapes the specificity of SH3 domain-mediated interactions in vivo” (Nature Communications, 2021).

Assays:
[1] = tested on: PPIs identified as affected by the SH3 domain deletions; experiment: Liquid DHFR-PCA low-throughput validation of PPIs affected by SH3 deletion (Fig. S1D-E); assay type: cell-based, Saccharomyces cerevisiae; settings: label = prey, liquid DHFR-PCA, prey _1 = lost, _2 = gained in screen
Method: Liquid DHFR-PCA low-throughput experiments were performed to validate the PPIs identified as affected by the SH3 domain deletions in the high-throughput solid DHFR-PCA screen (256 PPIs weaker or lost and 116 PPIs stronger or gained following domain deletions). Mating and the diploid selection were performed as described for the large-scale experiment, with the exception that the plates were in 384 formats. Following the second diploid selection, diploid cells were inoculated in a 96 v-shaped well plate using a robotically manipulated 96 pin tool in a synthetic complete medium with MSG at pH 6.0 with NAT and HPH. After 48 h of growth, optical density (OD) was read using a TECAN Infinite F200 Pro, and dilutions to 1 OD in sterile nanopure water were prepared. Cells were then diluted to 0.1 OD by combining 25 µl of cell suspension at OD = 1 and 225 µl of PCA selection media without agar in a 96-wells plate. Plates were incubated at 30 °C in a TECAN Infinite M Nano and OD was monitored each 15 min for 72 h.

[2] = tested on: growth of yeast strains under 51 stress conditions; experiment: Growth assays in 51 stress conditions (Fig. 1E-F, S2D, S5B); assay type: cell-based, Saccharomyces cerevisiae; set-up: key to Growth (Fig. S2D) / growth of ABP1 SH3-swapped strains in stress condition: log2 colony size, average of median per strain (growth score); settings: ABP1 SH3-swapped strains
Method: All WT, SH3-deleted, KO (except for CDC25 which is the only essential SH3-containing gene in yeast), ABP1 SH3-swapped, and SLA1 SH3-shuffled strains were grown on omnitrays in 1536 formats and robotically manipulated with a pin tool (the DHFR F[1,2] bait strains were used except for the KO strains). Each strain was randomly positioned in 6 replicates per plate and two plates per condition were performed, for 12 replicates per strain in total. A border of two rows and two columns of WT strains (BY4741) around the plate was used to remove border effects. Strains were grown on YPD media for two days at 30 °C. They were then replicated on 51 different media that are described in the Supplementary Table 3 and were incubated at 37 °C in a spImager custom platform with images acquired every two hours for four days. The colony sizes from plate pictures were also measured with the R package “Gitter” and the output was manually inspected. Positions with an abnormality in colony circularity were removed. The colony sizes after 74 h of incubation at 37 °C were log2 transformed and used for the analyses. First, the differences between the two plate replicates were corrected to remove plate effects. The median colony size was calculated for each strain per plate. Strains with a difference in their median colony size of more than two between the two plate replicates were removed. Finally, the average of the median colony size was calculated for each strain per condition (growth score).

B1: YOR081C_2 (protein, UniProt Q12043 1-749, looked up)
Triacylglycerol lipase 5: MSNTLPVTEFLLSKYYELSNTPATDSSSLFKWLYHKTLSRKQLLISDLSSQKKHAISYDQWNDIASRLDDLTGLSEWKTIDESSLYNYKLLQDLTIRMRHLRTTHDYHRLLYLIRTKWVRNLGNMNNVNLYRHSHTGTKQIIHDYLEESQAVLTALIHQSNMNDHYLLGILQQTRRNIGRTALVLSGGSTFGLFHIGVLAALFESDLMPKVISGSSAGAIVASIFCVHTTQEIPSLLTNVLNMEFNIFNDDNSKSPNENLLIKISRFCQNGTWFNNQPLINTMLSFLGNLTFREAYNKTGKILNITVSPASIYEQPKLLNNLTAPNVLIWSAVCASCSLPGVFPSTPLFEKDPHTGKIKEWGATNLHLSNMKFMDGSVDNDMPISRLSEMFNVDHIIACQVNIHVFPLLKFSNTCVGGEIEKEITARFRNQVTKIFKFFSDETIHFLDILKELEFHPYLMTKLKHLFLQQYSGNVTILPDLSMVGQFHEVLKNPSQLFLLHQTTLGARATWPKISMIQNNCGQEFALDKAITFLKEKIIISSSIKNPLQFYQPRFSEQIKSLSIMDADLPGVDLEESSSNSLSIIKSPNKTAAPGRFPLQPLPSPSSTFNKRKMDMLSPSPSPSTSPQRSKSSFTQQGTRQKANSLSFAIGASSLRLKKSPLKVPSRPQFKKRSSYYNQNMSAEMRKNRKKSGTISSYDVQTNSEDFPIPAIENGSFDNTLFNPSRFPMDAMSAATNDNFMNNSDIFQN
Ratio (Deletedscore / WTscore) ([1]; bait LSB3): 1.383

B2: YPL246C_2 (protein, UniProt Q12270 1-262, looked up)
Rhomboid-type serine protease …: MNWKSYVFPGGHPPAALTTGLVVFLTAIYLLSFIFALREDLSLAPESLFKLQMSRLSLYPLIHLSLPHLLFNVLAIWAPLNLFEETHGTVYTGVFLNLSALFAGILYCLLGKLLYPEALVAGASGWCFTLFAYYSFKESQIRPRTRIFRTDYSIPTLYTPLVLLVAIAVVIPGSSFWGHFFGLCVGYAIGYKESWFNKITPPGWIITKIEKSLDGLIRLIPWGIKYYRDEDIDRTKDYEPLMSTETPLPLHNDNSGTVLGTA
Ratio (Deletedscore / WTscore) ([1]; bait ABP1): 1.339 | Ratio (Deletedscore / WTscore) ([1]; bait LSB3): 1.364 | Ratio (Deletedscore / WTscore) ([1]; bait SHO1): 1.171

B3: ABP1 WT (protein, UniProt P15891 2-592, looked up)
Actin-binding protein: ALEPIDYTTHSREIDAEYLKIVRGSDPDTTWLIISPNAKKEYEPESTGSSFHDFLQLFDETKVQYGLARVSPPGSDVEKIIIIGWCPDSAPLKTRASFAANFAAVANNLFKGYHVQVTARDEDDLDENELLMKISNAAGARYSIQTSSKQQGKASTPPVKKSFTPSKSPAPVSKKEPVKTPSPAPAAKISSRVNDNNDDDDWNEPELKERDFDQAPLKPNQSSYKPIGKIDLQKVIAEEKAKEDPRLVQKPTAAGSKIDPSSDIANLKNESKLKRDSEFNSFLGTTKPPSMTESSLKNDDDKVIKGFRNEKSPAQLWAERKAKQNSGNAETKAEAPKPEVPEDEPEGEPDVKDLKSKFEGLAASEKEEEEMENKFAPPPKKSEPTIISPKPFSKPQEPVKAEEAEQPKTDYKKIGNPLPGMHIEADNEEEPEENDDDWDDDEDEAAQPPLPSRNVASGAPVQKEEPEQEEIAPSLPSRNSIPAPKQEEAPEQAPEEEIEEEAEEAAPQLPSRSSAAPPPPPRRATPEKKPKENPWATAEYDYDAAEDNELTFVENDKIINIEFVDDDWWLGELEKDGSKGLFPSNYVSLGN
Growth (Fig. S2D) ([2]; Bathophenanthroline.0.1uM): 10.7779 | Growth (Fig. S2D) ([2]; Bathophenanthroline.10uM): 10.6544 | Growth (Fig. S2D) ([2]; Bathophenanthroline.1uM): 10.7233 | Growth (Fig. S2D) ([2]; CaCl2.100mM): 10.745 | Growth (Fig. S2D) ([2]; CaCl2.250mM): 10.6724 | Growth (Fig. S2D) ([2]; CaCl2.500mM): 10.224 | Growth (Fig. S2D) ([2]; Caffein.10mM): 9.987 | Growth (Fig. S2D) ([2]; Caffein.2mM): 10.9881 | Growth (Fig. S2D) ([2]; CdCl2.100uM): 9.742 | Growth (Fig. S2D) ([2]; CdCl2.10uM): 10.8471 | Growth (Fig. S2D) ([2]; CdCl2.50uM): 10.1808 | Growth (Fig. S2D) ([2]; CuSO4.1mM): 10.5746 | Growth (Fig. S2D) ([2]; CuSO4.5mM): 8.442 | Growth (Fig. S2D) ([2]; Cycloheximide.0.05.uM): 11.0561 | Growth (Fig. S2D) ([2]; Cycloheximide.0.2.uM): 10.6665 | Growth (Fig. S2D) ([2]; Cycloheximide.0.5.uM): 10.4823 | Growth (Fig. S2D) ([2]; DMSO.2.): 10.9822 | Growth (Fig. S2D) ([2]; DMSO.6.): 9.9755 | Growth (Fig. S2D) ([2]; DMSO.8.): 9.381 | Growth (Fig. S2D) ([2]; Ethanol.2.): 10.76 | Growth (Fig. S2D) ([2]; Ethanol.6.): 10.427 | Growth (Fig. S2D) ([2]; Ethanol.8.): 10.4864 | Growth (Fig. S2D) ([2]; Galactose.2.): 10.7856 | Growth (Fig. S2D) ([2]; Glycerol.2.): 10.3292 | Growth (Fig. S2D) ([2]; Hydroxyurea.25mM): 10.7632 | Growth (Fig. S2D) ([2]; Hygromycin.190uM): 10.9263 | Growth (Fig. S2D) ([2]; Hygromycin.19uM): 10.9545 | Growth (Fig. S2D) ([2]; Hygromycin.95uM): 10.9494 | Growth (Fig. S2D) ([2]; MMS.0.004.): 10.9625 | Growth (Fig. S2D) ([2]; MMS.0.02.): 10.8338 | Growth (Fig. S2D) ([2]; MMS.0.04.): 10.264 | Growth (Fig. S2D) ([2]; Menadione.100uM): 10.4792 | Growth (Fig. S2D) ([2]; Menadione.200uM): 10.398 | Growth (Fig. S2D) ([2]; Menadione.50uM): 10.8403 | Growth (Fig. S2D) ([2]; NaCl.0.25M): 10.7336 | Growth (Fig. S2D) ([2]; NaCl.1M): 10.1964 | Growth (Fig. S2D) ([2]; Nitroquinoline.10uM): 10.6457 | Growth (Fig. S2D) ([2]; Nitroquinoline.50uM): 10.6448 | Growth (Fig. S2D) ([2]; Nystatin.0.01uM): 10.9455 | Growth (Fig. S2D) ([2]; Nystatin.0.1uM): 11.0177 | Growth (Fig. S2D) ([2]; Raffinose.2.): 10.9059 | Growth (Fig. S2D) ([2]; Rapamycin.10nM): 9.962 | Growth (Fig. S2D) ([2]; Rapamycin.50nM): 9.216 | Growth (Fig. S2D) ([2]; SC.pH3): 10.4509 | Growth (Fig. S2D) ([2]; SC.pH6): 10.9947 | Growth (Fig. S2D) ([2]; SDS.0.01.): 10.9398 | Growth (Fig. S2D) ([2]; SDS.0.02.): 10.9447 | Growth (Fig. S2D) ([2]; SDS.0.05.): 10.807 | Growth (Fig. S2D) ([2]; Sorbitol.10mM): 10.9819 | Growth (Fig. S2D) ([2]; Sorbitol.1mM): 10.9741 | Growth (Fig. S2D) ([2]; Sorbitol.5mM): 10.8941

B4: YOR039W_2 (protein, UniProt P38930 1-258, looked up)
Casein kinase II subunit beta': MGSRSENVGTVTREGSRVEQDDVLMDDDSDSSEYVDMWIDLFLGRKGHEYFCDVDPEYITDRFNLMNLQKTVSKFSYVVQYIVDDLDDSILENMTHARLEQLESDSRKLYGLIHARYIITIKGLQKMYAKYKEADFGRCPRVYCNLQQLLPVGLHDIPGIDCVKLYCPSCEDLYIPKSSRHSSIDGAYFGTSFPGMFLQAFPDMVPKHPTKRYVPKIFGFELHKQAQLTRWQELQRLKLVEKLESKDVDLTKSGGFKT
Ratio (Deletedscore / WTscore) ([1]; bait LSB3): 1.116
